± gives the uncertainty stated by the source.
Assay: self-splicing fitness, log relative to wild type (ln ratio); higher = more splicing; Tetrahymena group I intron in knt gene, E. coli kanamycin selection, DiMSum; sequences stand for … in CUCUCU…GGAGGGAAAAGUUAUCAGGCAUGCACCUGGUAGCUAGUCUUUAAACCAAUAGAUUGCAUCGGUUUAAAAGGCAAGACCGUCAAAUUGCGGGAAAGGGGUCAACAGCCGUUCAGUACCAAGUCUCAGGGGAAACUUUGAGAUGGCCUUGCAAAGGGUAUGGUAAUAAGCUGACGGACAUGGUCCUAACCACGCAGCCAAGUCCUAAGUCAACAGAUCUUCUGUUGAUAUGGAUGCAGUUCACAGACUAAAUGUCGGUCGGGGAAGAUGUAUUCUUCUCAUAAGAUAUAGUCGGACCUCUCCUUAAUGGGAGCUAGCGGAUGAAGUGAUGCAACACUGGAGCCGCUGGGAACUAAUUUGUAUGCGAAAGUAUAUUGAUUAGUUUUGGAGUACUCGUGGUCG
Procedure, shortened: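 DiMSum derived fitness as the error-weighted combination of fold changes across replicates, kanamycin versus no kanamycin, normalised to wild type. E. coli BL21(DE3) held the library, which randomised all eight P1ex-region intron nucleotides within the knt kanamycin-resistance gene on pET-22b(+). Six replicate transformations grew overnight at 37°C or 30°C on LB agar with or without 25 μg/mL kanamycin, also containing 100 μg/mL carbenicillin, 50 μM IPTG and 0.2% rhamnose, and pooled colonies were amplicon-sequenced on an Illumina HiSeq 2500.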

In the case of AUGUAGCAAUAUUACGGCUU, the “self-splicing fitness (ln)” value (30 °C) is reported as 0.168 ± 0.095 and the “self-splicing fitness (ln)” value (37 °C) is reported as 0.71 ± 0.12.
In the case of AGACAGCAAUAUUACGUCGU, the “self-splicing fitness (ln)” value (30 °C) is reported as -2.21 ± 0.091 and the “self-splicing fitness (ln)” value (37 °C) is reported as -1.85 ± 0.12.
With CAAAAGCAAUAUUACGGCCU the “self-splicing fitness (ln)” value (30 °C) was -1.44 ± 0.14 and the “self-splicing fitness (ln)” value (37 °C) was -1.25 ± 0.12.
For UUGUAGCAAUAUUACGCGAU, the “self-splicing fitness (ln)” value (30 °C) was -3.54 ± 0.26 and the “self-splicing fitness (ln)” value (37 °C) was -2.51 ± 0.25.
For CGUCAGCAAUAUUACGAAGC, the “self-splicing fitness (ln)” value (37 °C) was -2.3 ± 0.5.
With ACUCAGCAAUAUUACGUUAC the “self-splicing fitness (ln)” value (30 °C) was -4.33 ± 0.26 and the “self-splicing fitness (ln)” value (37 °C) was -2.31 ± 0.18.
In the case of GGCGAGCAAUAUUACGAUAG, the “self-splicing fitness (ln)” value (30 °C) is reported as -1.89 ± 0.18 and the “self-splicing fitness (ln)” value (37 °C) is reported as -2.67 ± 0.38.
For UAGCAGCAAUAUUACGGAUC, the “self-splicing fitness (ln)” value (30 °C) was -3.34 ± 0.21 and the “self-splicing fitness (ln)” value (37 °C) was -1.4 ± 0.2.
With AGUGAGCAAUAUUACGAAGU the “self-splicing fitness (ln)” value (30 °C) was -2.49 ± 0.26 and the “self-splicing fitness (ln)” value (37 °C) was 0.907 ± 0.22.
With CCUCAGCAAUAUUACGCCCU the “self-splicing fitness (ln)” value (30 °C) was -2.29 ± 0.24 and the “self-splicing fitness (ln)” value (37 °C) was -2.73 ± 0.48.
In the case of CUACAGCAAUAUUACGUCGA, the “self-splicing fitness (ln)” value (30 °C) is reported as -3.59 ± 0.22 and the “self-splicing fitness (ln)” value (37 °C) is reported as -3.7 ± 0.3.
In the case of UUAUAGCAAUAUUACGAGGG, the “self-splicing fitness (ln)” value (30 °C) is reported as -3.47 ± 0.26 and the “self-splicing fitness (ln)” value (37 °C) is reported as -2.3 ± 0.27.
For CGAUAGCAAUAUUACGGUAC, the “self-splicing fitness (ln)” value (30 °C) was -3.93 ± 0.24 and the “self-splicing fitness (ln)” value (37 °C) was -2.89 ± 0.25.
With UUGAAGCAAUAUUACGUUAG the “self-splicing fitness (ln)” value (30 °C) was -0.587 ± 0.1 and the “self-splicing fitness (ln)” value (37 °C) was 0.138 ± 0.12.
For UAUCAGCAAUAUUACGCGUG, the “self-splicing fitness (ln)” value (30 °C) was -0.43 ± 0.062 and the “self-splicing fitness (ln)” value (37 °C) was -0.319 ± 0.075.
With AUCAAGCAAUAUUACGAAAA the “self-splicing fitness (ln)” value (30 °C) was -2.84 ± 0.36 and the “self-splicing fitness (ln)” value (37 °C) was -2.03 ± 0.27.
With UAGUAGCAAUAUUACGCGGG the “self-splicing fitness (ln)” value (30 °C) was -4.02 ± 0.34 and the “self-splicing fitness (ln)” value (37 °C) was -2.49 ± 0.39.
With GGAGAGCAAUAUUACGGCAA the “self-splicing fitness (ln)” value (30 °C) was -2.75 ± 0.47 and the “self-splicing fitness (ln)” value (37 °C) was -1.59 ± 0.43.
With CGAUAGCAAUAUUACGGUGG the “self-splicing fitness (ln)” value (30 °C) was -1.03 ± 0.086 and the “self-splicing fitness (ln)” value (37 °C) was -0.748 ± 0.09.
With GCUAAGCAAUAUUACGGCUC the “self-splicing fitness (ln)” value (30 °C) was -0.551 ± 0.092 and the “self-splicing fitness (ln)” value (37 °C) was -0.942 ± 0.098.
In the case of CUUGAGCAAUAUUACGAGGG, the “self-splicing fitness (ln)” value (30 °C) is reported as -3.25 ± 0.3 and the “self-splicing fitness (ln)” value (37 °C) is reported as -2.37 ± 0.42.
For UCCAAGCAAUAUUACGAGGC, the “self-splicing fitness (ln)” value (30 °C) was -3.67 ± 0.23 and the “self-splicing fitness (ln)” value (37 °C) was -2.26 ± 0.22.
With UUUAAGCAAUAUUACGGAGU the “self-splicing fitness (ln)” value (30 °C) was -3.04 ± 0.39 and the “self-splicing fitness (ln)” value (37 °C) was -1.18 ± 0.43.
In the case of GGGGAGCAAUAUUACGCCGU, the “self-splicing fitness (ln)” value (30 °C) is reported as -2.64 ± 0.33 and the “self-splicing fitness (ln)” value (37 °C) is reported as -0.911 ± 0.34.
For GCAUAGCAAUAUUACGGUUA, the “self-splicing fitness (ln)” value (30 °C) was -1.34 ± 0.093 and the “self-splicing fitness (ln)” value (37 °C) was -0.638 ± 0.084.
With CGUUAGCAAUAUUACGUUGA the “self-splicing fitness (ln)” value (30 °C) was -3.1 ± 0.22 and the “self-splicing fitness (ln)” value (37 °C) was -2.25 ± 0.17.
With UGGGAGCAAUAUUACGCUUA the “self-splicing fitness (ln)” value (30 °C) was -2.55 ± 0.11 and the “self-splicing fitness (ln)” value (37 °C) was -0.767 ± 0.098.
In the case of GAUUAGCAAUAUUACGCGGA, the “self-splicing fitness (ln)” value (30 °C) is reported as -3.19 ± 0.26 and the “self-splicing fitness (ln)” value (37 °C) is reported as -1.55 ± 0.15.
In the case of AAGUAGCAAUAUUACGAGCC, the “self-splicing fitness (ln)” value (30 °C) is reported as -2.87 ± 0.22 and the “self-splicing fitness (ln)” value (37 °C) is reported as -1.34 ± 0.25.
For CCAAAGCAAUAUUACGAACG, the “self-splicing fitness (ln)” value (30 °C) was 0.08 ± 0.054 and the “self-splicing fitness (ln)” value (37 °C) was -0.168 ± 0.071.
With CCGAAGCAAUAUUACGAACC the “self-splicing fitness (ln)” value (30 °C) was -3.42 ± 0.48.
In the case of CGCCAGCAAUAUUACGGUUU, the “self-splicing fitness (ln)” value (30 °C) is reported as -0.936 ± 0.056 and the “self-splicing fitness (ln)” value (37 °C) is reported as -0.589 ± 0.059.
In the case of CCAAAGCAAUAUUACGGCUU, the “self-splicing fitness (ln)” value (30 °C) is reported as -4.45 ± 0.21 and the “self-splicing fitness (ln)” value (37 °C) is reported as -2.32 ± 0.14.
In the case of AUGUAGCAAUAUUACGCCUC, the “self-splicing fitness (ln)” value (30 °C) is reported as -2.83 ± 0.41 and the “self-splicing fitness (ln)” value (37 °C) is reported as -1.61 ± 0.32.
In the case of GUUUAGCAAUAUUACGUUUA, the “self-splicing fitness (ln)” value (30 °C) is reported as -2.69 ± 0.23 and the “self-splicing fitness (ln)” value (37 °C) is reported as -0.853 ± 0.17.
In the case of AGGCAGCAAUAUUACGAGGC, the “self-splicing fitness (ln)” value (30 °C) is reported as -3.43 ± 0.29 and the “self-splicing fitness (ln)” value (37 °C) is reported as -1.67 ± 0.22.
With CUGAAGCAAUAUUACGUGAG the “self-splicing fitness (ln)” value (30 °C) was -0.269 ± 0.044 and the “self-splicing fitness (ln)” value (37 °C) was 0.305 ± 0.065.
For CGGAAGCAAUAUUACGCGAG, the “self-splicing fitness (ln)” value (30 °C) was -1.19 ± 0.15 and the “self-splicing fitness (ln)” value (37 °C) was -1.24 ± 0.27.
With GACAAGCAAUAUUACGACGG the “self-splicing fitness (ln)” value (30 °C) was -3.3 ± 0.2 and the “self-splicing fitness (ln)” value (37 °C) was -2.64 ± 0.17.
In the case of GACGAGCAAUAUUACGUAUC, the “self-splicing fitness (ln)” value (37 °C) is reported as -2.42 ± 0.35.
For GUAAAGCAAUAUUACGGGCU, the “self-splicing fitness (ln)” value (30 °C) was -1.69 ± 0.069 and the “self-splicing fitness (ln)” value (37 °C) was -1.24 ± 0.11.
With UACAAGCAAUAUUACGCCCG the “self-splicing fitness (ln)” value (30 °C) was 0.87 ± 0.18 and the “self-splicing fitness (ln)” value (37 °C) was 0.761 ± 0.23.
In the case of GGCUAGCAAUAUUACGGGCU, the “self-splicing fitness (ln)” value (37 °C) is reported as -3.05 ± 0.3.

— the supplement of paper PMC7877785
